Assay results: patent publication US20210380703A1
Substitutions are numbered along the chain they refer to.

B1: 366_E10 (antibody, V domains shown)
VH: EVQLLESGGGLVQPGGSLRLSCAASGFTFDSYGMNWVRQAPGKGLEWVSGINYNGGYKGYADSVKGRFTISRDNSKNTLYLQMNSLRAEDTAVYYCARSANWHDTHLDYWGQGTLVTVSS
VL: DIQMTQSPSSLSASVGDRVTITCRASQSILSYVNWYQQKPGKAPKLVIYAATSRHSGVPSRFSGSGSGTDFTLTISSLQPEDFATYYCQQSYSLPLTFGGGTKVEIK
B2: 366_H06 (antibody, V domains shown)
VH: B1 VH with D30S, G50S, K58T, H106A
VL: B1 VL with V33L, V47L, A51T, H55A, S93D, L94T
B3: 367_B03 (antibody, V domains shown)
VH: B1 VH with D30S, S49A, G59S, H106A
VL: B1 VL with S31T, V33L, V47L, R54L, H55A, S93N
B4: 366_F07 (antibody, V domains shown)
VH: B1 VH with D30S, S31D, G33S, S49A, G55S, K58T, G59S
VL: B1 VL with L30I, S31T, V33L, V47L, H55A, S93E, L94T
B5: 366_H07 (antibody, V domains shown)
VH: B1 VH with D30S, N35H, K58T, G59S, H106A
VL: B1 VL with L30I, A51V, H55A, S93E, L94N
B6: 366_G05 (antibody, V domains shown)
VH: B1 VH with G50N, K58T, G59S, H106A
VL: B1 VL with L30I, H55A, S93E, L94N
B7: 366_H08 (antibody, V domains shown)
VH: B1 VH with D30S, S31D, S49A, G50S, G55S, K58T, G59S
VL: B1 VL with V47L, S93N, L94N
B8: 366_G04 (antibody, V domains shown)
VH: B1 VH with D30S, G33S, G55S, K58T, G59S, H106A
VL: B1 VL with L30I, S31T, V33L, V47L, H55A, Y92D, S93D, L94T
B9: 367_B07 (antibody, V domains shown)
VH: B1 VH with D30S, S31D, G33S, S49A, G55S, K58T
VL: B1 VL with L30I, V47L, R54L, H55A, S93N
B10: 367_B08 (antibody, V domains shown)
VH: B1 VH with D30S, S31D, H106A
VL: B1 VL with S31T, V33L, H55A, S93D, L94N
B11: 367_A04 (antibody, V domains shown)
VH: B1 VH with D30S, G33S, G50N, G55S, G59S, H106A
VL: B1 VL with L30I, S31T, V33L, V47L, H55A, Y92D, S93D, L94S
B12: 366_F04 (antibody, V domains shown)
VH: B1 VH with D30S, S31D, K58T, G59S, H106A
VL: B1 VL with A51T, S93E, L94S
B13: 367_A05 (antibody, V domains shown)
VH: B1 VH with D30S, S31D, G50S, H106A
VL: B1 VL with V33L, A51V, H55A, S93D, L94S
B14: 366_F05 (antibody, V domains shown)
VH: B1 VH with D30S, G33S, S49A, G50N, G55S, G59S
VL: B1 VL with S31T, V33L, V47L, H55A, Y92D, S93N, L94T
B15: 374_E02 (antibody, V domains shown)
VH: B1 VH with D30S, G33S, K58T, G59S, H106A
VL: B1 VL with V33L, V47L, R54L, H55A, S93D
B16: 376_A04 (antibody, V domains shown)
VH: B1 VH with G33S, G50N, K58T, G59S, H106A
VL: B1 VL with L30V, S31T, V33L, H55A, S93D, L94S
B17: 376_B09 (antibody, V domains shown)
VH: B1 VH with G33S, S49A, G50N, G55S, H106A
VL: B1 VL with S31T, H55A, S93D
B18: 374_E08 (antibody, V domains shown)
VH: B1 VH with D30S, S49A, G59S, H106A
VL: B1 VL with V33L, V47L, S93D
B19: 374_E05 (antibody, V domains shown)
VH: B1 VH with D30S, G33S, S49A, K58T, G59S, H106A
VL: B1 VL with Y32F, H55A, S93N
B20: 375_E01 (antibody, V domains shown)
VH: B1 VH with D30S, G33S, G55S, G59S, H106A
VL: B1 VL with S31T, V33L, H55A, Y92D, S93D, L94S
B21: 375_D05 (antibody, V domains shown)
VH: B1 VH with D30S, G33S, S49A, G50S, G55S, K58T, G59S
VL: B1 VL with L30V, V33L, V47L, R54L, S93D, L94T
B22: 374_F01 (antibody, V domains shown)
VH: B1 VH with G33S, G50N, K58T, H106A
VL: B1 VL with S93E, L94N
B23: 375_E07 (antibody, V domains shown)
VH: B1 VH with D30S, S31D, G33S, S49A, G55S, H106A
VL: B1 VL with L30V, S31T, V33L, V47L, A50V, A51V, S53N, H55E, S93E, L94T
B24: 374_E11 (antibody, V domains shown)
VH: B1 VH with D30S, G50N, K58T, G59S, H106A
VL: B1 VL with L30V, S31T, V33L, H55A, S93D, L94S
B25: 374_H09 (antibody, V domains shown)
VH: B1 VH with D30S, G33S, S49A, G50N, G55S, G59S, H106A
VL: B1 VL with V33L, A51V, R54L, H55A, S93D
B26: 374_H07 (antibody, V domains shown)
VH: B1 VH with S49A, G50N, K58T, H106A
VL: B1 VL with S31T, V33L, V47L, H55A, S93E, L94T
B27: 374_G06 (antibody, V domains shown)
VH: B1 VH with D30S, N35H, S49A, G50S, K58T, G59S, H106A
VL: B1 VL with V33L, V47L, A51V, H55A, S93D
B28: 375_D04 (antibody, V domains shown)
VH: B1 VH with S31D, Y32S, G33S, N35H, G50N, K58T, R98K, H106A
VL: B1 VL with H55A, S93E
B29: 374_H06 (antibody, V domains shown)
VH: B1 VH with D30S, G50N, K58T, H106A
VL: B1 VL with L30V, H55A, S93N
B30: 374_G07 (antibody, V domains shown)
VH: B1 VH with D30S, G33S, G55S, G59S, H106A
VL: B1 VL with L30I, V33L, V47L, H55A, S93D, L94S
B31: 374_F11 (antibody, V domains shown)
VH: B1 VH with G33S, G50N, K58T, H106A
VL: B1 VL with V33L, V47L, A51V, R54L, H55A, S93E, L94S
B32: 375_D12 (antibody, V domains shown)
VH: B1 VH with G50S, G55S, K58T, G59S, H106A
VL: B1 VL with S31T, H55A, S93E, L94T
B33: 376_A10 (antibody, V domains shown)
VH: B1 VH with D30S, S31D, G50N, G55S, H106A
VL: B1 VL with V33L, V47L, H55A, S93E, L94S
B34: 376_A12 (antibody, V domains shown)
VH: B1 VH with D30S, G33S, S49A, G50N, G55S, H106A
VL: B1 VL with H55A, S93D, L94T
B35: 376_B05 (antibody, V domains shown)
VH: B1 VH with D30S, G33S, S49A, G50N, K58T, H106A
VL: B1 VL with L30I, V47L, H55A, S93E
B36: 375_C06 (antibody, V domains shown)
VH: B1 VH with S31D, N35H, S49A, G50S, G55S, K58T, G59S, H106A
VL: B1 VL with S31T, A51T, H55A, S93D, L94S
B37: 374_F04 (antibody, V domains shown)
VH: B1 VH with D30S, G55S, G59S, H106A
VL: B1 VL with S31T, V47L, H55A, S93N, L94S
B38: 374_H03 (antibody, V domains shown)
VH: B1 VH with D30S, G55S, G59S, H106A
VL: B1 VL with H55A, S93D, L94S
B39: 374_F10 (antibody, V domains shown)
VH: B1 VH with D30S, G33S, K58T, G59S, H106A
VL: B1 VL with V33L, H55A, S93D, L94N
B40: 376_C01 (antibody, V domains shown)
VH: B1 VH with G33S, S49A, K58T, G59S, H106A
VL: B1 VL with S31T, V33L, V47L, R54L, H55A, S93D, L94N
B41: 374_H04 (antibody, V domains shown)
VH: B1 VH with G33S, G55S, K58T, G59S, H106A
VL: B1 VL with S31T, V33L, V47L, H55A, S93D, L94N
B42: 374_F02 (antibody, V domains shown)
VH: B1 VH with G33S, S49A, G50N, G55S, K58T, G59S, H106A
VL: B1 VL with L30V, V33L, V47L, T52S, R54L, H55Q, S93E
B43: 374_G04 (antibody, V domains shown)
VH: B1 VH with D30S, G33S, S49A, K58T, H106A
VL: B1 VL with S31T, V33L, R54L, H55A, S93D, L94N
B44: 375_H12 (antibody, V domains shown)
VH: B1 VH with D30S, S49A, H106A
VL: B1 VL with S31T, V33L, V47L, A50Y, A51V, S53N, H55Q, L94I
B45: 376_B11 (antibody, V domains shown)
VH: B1 VH with D30S, G33S, K58T, G59S, H106A
VL: B1 VL with H55A, S93D
B46: 375_D07 (antibody, V domains shown)
VH: B1 VH with D30S, S49A, G50N, G55S, K58T, H106A
VL: B1 VL with L30I, S31T, V33L, V47L, H55A, S93D, L94T
B47: 376_B04 (antibody, V domains shown)
VH: B1 VH with N35H, S49A, G50S, K58T, H106A
VL: B1 VL with L30V, H55A, S93D, L94T
B48: 375_A05 (antibody, V domains shown)
VH: B1 VH with D30S, S49A, G50N, H106A
VL: B1 VL with V33L, V47L, H55A, S93D

Target: Human Fc (human)
Experiment: ELISA; negative control

optical density	Binder
0.271 OD	B1
0.285 OD	B2
0.318 OD	B3
0.353 OD	B4
0.285 OD	B5
0.28 OD	B6
0.417 OD	B7
0.31 OD	B8
0.236 OD	B9
0.37 OD	B10
0.267 OD	B11
0.281 OD	B12
0.269 OD	B13
0.279 OD	B14

Target: human Fc (human)
Experiment: ELISA; negative control

optical density	Binder
0.527 OD	B15
0.245 OD	B16
0.227 OD	B17
0.251 OD	B18
0.244 OD	B19
0.164 OD	B20
0.202 OD	B21
0.165 OD	B22
0.158 OD	B23
0.186 OD	B24
0.158 OD	B25
0.163 OD	B26
0.25 OD	B27
0.182 OD	B28
0.166 OD	B29
0.214 OD	B30
0.191 OD	B31

optical density	Binder
0.193 OD	B32
0.279 OD	B33
0.22 OD	B34
0.242 OD	B35
0.2 OD	B36
0.163 OD	B37
0.162 OD	B38
0.524 OD	B39
0.324 OD	B40
0.167 OD	B41
0.169 OD	B42
0.161 OD	B43
0.188 OD	B44
0.261 OD	B45
0.176 OD	B46
0.293 OD	B47
0.202 OD	B48
